Laboratory results published in publication PMC5291263.

How the values were obtained:
[1] = target: T1, GB1-SRSF1 RRM2 WT (pseudo-RRM) (human, UniProt Q07955 107-203); test: NMR
[2] = target: T1, GB1-SRSF1 RRM2 WT (pseudo-RRM); test: ITC
GB1-SRSF1 RRM2 R142A = GB1-SRSF1 RRM2 R142A (human, UniProt Q07955 107-203, R142A); test: ITC
Sequence of GB1-SRSF1 RRM2 R142A (Q07955 107-203 R142A): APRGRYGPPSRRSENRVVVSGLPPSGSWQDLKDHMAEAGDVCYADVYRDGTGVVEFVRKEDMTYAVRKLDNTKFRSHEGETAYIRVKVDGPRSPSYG

T1 sequence (Q07955 107-203): as the sequence (Q07955 107-203 R142A) above, with A36R counted along it

Binder	binding result [1]	Kd [2] [µM]	Kd (GB1-SRSF1 RRM2 R142A) [µM]
UGAAGGAC (ssRNA) [5'-UGAAGGAC-3' RNA]	binds		
AGGAC (ssRNA) [5'-AGGAC-3' RNA]		1	7
